# According to IntAct's records for PubMed 22927646:
# B1: Isoform 2 of Acid ceramidase (Homo sapiens), Q13510-2 (parent)
# chain: MNCCIGLGEKARGSHRASYPSLSALFTEASILGFGSFAVKAQWTEDCRKSTYPPSGPTYRGAVPWYTINLDLPPYKRWHELMLDKAPVLKVIVNSLKNMINTFVPSGKIMQVVDEKLPGLLGNFPGPFEEEMKGIAAVTDIPLGEIISFNIFYELFTICTSIVAEDKKGHLIHGRNMDFGVFLGWNINNDTWVITEQLKPLTVNLDFQRNNKTVFKASSFAGYVGMLTGFKPGLFSLTLNERFSINGGYLGILEWILGKKDVMWIGFLTRTVLENSTSYEEAKNLLTKTKILAPAYFILGGNQSGEGCVITRDRKESLDVYELDAKQGRWYVVQTNYDRWKHPFFLDDRRTPAKMCLNRTSQENISFETMYDVLSTKPVLNKLTVYTTLIDVTKGQFETYLRDCPDPCIGW
# Variants of: B1
# Conditions: with stf1_human NR5A1, Q13285
# stf1_human NR5A1, Q13285, sequence (Q13285 whole entry): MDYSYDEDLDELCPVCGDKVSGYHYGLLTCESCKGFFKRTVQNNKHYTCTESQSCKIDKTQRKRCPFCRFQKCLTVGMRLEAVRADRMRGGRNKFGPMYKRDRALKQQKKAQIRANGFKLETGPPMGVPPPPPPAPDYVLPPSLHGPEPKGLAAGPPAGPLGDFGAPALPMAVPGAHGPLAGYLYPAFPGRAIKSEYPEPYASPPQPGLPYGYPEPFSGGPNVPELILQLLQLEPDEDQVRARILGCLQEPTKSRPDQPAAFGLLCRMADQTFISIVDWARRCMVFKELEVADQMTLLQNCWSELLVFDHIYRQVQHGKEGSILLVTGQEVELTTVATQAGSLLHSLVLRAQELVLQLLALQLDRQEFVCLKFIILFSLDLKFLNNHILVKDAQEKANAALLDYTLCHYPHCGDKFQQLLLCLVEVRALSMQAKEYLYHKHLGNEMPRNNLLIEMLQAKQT
row,Variant,effect of a mutation on the interaction
1,MNCCIGLGEKARGSHRASYPSASAAFTEASILGFGSFAVKAQWTEDCRKSTYPPSGPTYRGAVPWYTINLDLPPYKRWHELMLDKAPVLKVIVNSLKNMINTFVPSGKIMQVVDEKLPGLLGNFPGPFEEEMKGIAAVTDIPLGEIISFNIFYELFTICTSIVAEDKKGHLIHGRNMDFGVFLGWNINNDTWVITEQLKPLTVNLDFQRNNKTVFKASSFAGYVGMLTGFKPGLFSLTLNERFSINGGYLGILEWILGKKDVMWIGFLTRTVLENSTSYEEAKNLLTKTKILAPAYFILGGNQSGEGCVITRDRKESLDVYELDAKQGRWYVVQTNYDRWKHPFFLDDRRTPAKMCLNRTSQENISFETMYDVLSTKPVLNKLTVYTTLIDVTKGQFETYLRDCPDPCIGW [L22A;L25A],disrupting interaction strength
